According to PMC6733935, “A convenient and efficient total solid-phase synthesis of DOTA-functionalized tumor-targeting peptides for PET imaging of cancer” (EJNMMI Research, 2019):
Square brackets hold non-standard residues; d marks the D form. Peptide text beside a SMILES is read from it. * marks the point of attachment. DOTA = O=C(O)CN1CCN(CC(=O)O)CCN(CC(=O)*)CCN(CC(=O)O)CC1; Cha = N[C@@H](CC1CCCCC1)C(=O)O; 4Abz = Nc1ccc(C(=O)O)cc1; Nle = CCCC[C@H](N)C(=O)O; Ahx = NCCCCCC(=O)O

Columns and labels:
[1] = target: T1, BN/GRP receptor-positive PC3 human prostate cancer cells (Homo sapiens, UniProt P30550); experiment: Saturation binding assay on PC3 cells; details: n = 3-5 experiments; for Bmax (apparent number of binding sites per cell): SD < 15%
T1 construct: BN/GRP receptor-positive MDA-MB-231, MCF7, T47D human breast cancer, and PC3 human prostate cancer lines; host or cells: MDA-MB-231, MCF7, T47D (human breast cancer), PC3 (human prostate cancer); intact cells
Description: The cell binding of ^68Ga-radiolabeled peptides into BN/GRP receptor-positive MDA-MB-231, MCF7, T47D human breast cancer, and PC3 human prostate cancer lines (American Type Culture Collection, Rockville, MD, USA) was performed according to the method described previously. In brief, ∼ 300,000 cells (in 300 μL in low-serum media) were incubated with various amounts of radiopeptides, ranging between 0.1 and 25 nM of peptide (prepared from the serial dilutions of HPLC-purified radiopeptides), in duplicate for 60 min at room temperature. The initial concentrations of ^68Ga-labeled peptides were determined according to a well-established HPLC technique with simultaneous detection by UV absorbance. As the amount of BN peptide in the reaction mixture was too small to be detected by UV absorption at 220 nm, the radioactive peptide chromatograms from the HPLC analysis were compared (with UV chromatograms) with those of known concentrations of the corresponding nonradioactive peptides for the mass determination. Incubation was terminated by dilution with cold saline (300 μL) and the cells were pelleted by centrifugation. The cell pellets was then rapidly washed with cold saline to remove any unbound peptide and centrifuged to collect supernatants. Radioactivity in the cell pellet and the washings was measured in a γ-counter. Non-specific binding was determined in the presence of ~ 200-fold molar excess of unlabeled BN peptide. Specific binding is calculated by subtracting the non-specifically bound radioactivity from that of the total binding. The dissociation constant (Kd) was calculated using a plot of cell bound activity versus the concentration of the radioligand using GraphPad Prism software (GraphPad Software Inc., San Diego, CA, USA).

in vivo = experiment: in vivo; set-up: species or system Balb/c mice; details: Balb/c, mouse, iv; for dose excreted at 1 h / dose excreted at 2 h / tissue uptake at 1 h / tissue uptake at 2 h: total radioactivity
Description: Approval for the animal protocol used in this study was obtained from the Institutional Animal Care and Use Committee. Animal studies were conducted according to the international regulations governing the safe and proper use of laboratory animals. In vivo biodistribution were performed on healthy Balb/c mice (n = 3–5 in each group, body weight 19–22 g) at 1 and 2 h after intravenous injection of the HPLC-purified radiopeptide (100 μL, 15–20 μCi, total peptide dose ~ 20 ng) via the lateral tail vein. The mice were sacrificed by cervical dislocation at specified time points and blood samples were withdrawn with a syringe from the heart. Major organs such as lungs, stomach, spleen, pancreas, intestines, liver, kidneys, etc. were isolated, weighed, and radioactivity in each organs and tissues were measured using a γ-scintillation counter. Uptake of radioactivity in the tissues and organs was expressed as the percent injected dose per gram (% ID/g) of tissue/organ, which was calculated by comparison with standard solutions representing 10% of the injected dose per animal. For the clearance studies, radioactivity in the urine with bladder and feces is expressed as the percent of the injected dose per tissue (% ID). Values are expressed as mean ± SD for a group of 3-5 animals at each time point.

MDA-MB-231 tumors = experiment: in vivo; format: in vivo, nude mice; details: for Radioactivity in Urine + bladder / Uptake in Blood / Uptake in Intestines (measured without their contents) / Uptake in Kidneys / Uptake in Liver / Uptake in Lungs / Uptake in Muscle / Uptake in Pancreas / Uptake in Spleen / Uptake in Stomach: female, nude, mouse, in vivo; for Uptake in Tumor: nude mice with MDA-MB-231 tumors, mean ± SD, n = 3-5
Description: BN/GRP receptor-positive MDA-MB-231 and PC3 cell lines (American Type Culture Collection, Rockville, USA) were grown as monolayers at 37 °C in a humidified atmosphere containing RPMI-1640 culture media with 10% fetal bovine serum (FBS) in tissue culture flasks. Twenty-four hours prior to conducting the tumor implantation, the media was replaced with RPMI-1640/10% FBS. The cells were grown to 80-90% confluency and harvested by trypsinization. After centrifugation, about 50 million cells were suspended in 1 mL media for implantation into mice. To prepare cells for inoculation, MDA-MB-231 or PC3 cancer cells with media were centrifuged, the media decanted, and the cell pellet was mixed with phosphate-buffered saline (PBS) to reach a concentration of approximately 5 million cells per 100 μL PBS. Human MDA-MB-231 breast cancer xenografts female mouse models were used for in vivo tumor-targeting experiments. For the implantation of tumor xenografts, approximately five million MDA-MB-231 cells in suspension of 100 μL sterile PBS were injected subcutaneously into the left thigh of each mouse. Tumors were allowed to grow for 4-6 weeks by which tumors had reached weights of 200-300 mg. After sufficient growth of tumors, animals were injected with 20-30 μCi of the radiotracers and the animals were sacrificed at specified time points. The uptake of ^68Ga-radiolabeled peptides in the tumors and other major body organs was calculated by γ-counting as described above.

[2] = Uptake in Intestines (measured without their contents)

CCCC[C@H](NC(=O)[C@H](Cc1c[nH]cn1)NC(=O)[C@H](CC1CCCCC1)NC(=O)[C@@H](NC(=O)[C@H](C)NC(=O)[C@H](Cc1c[nH]c2ccccc12)NC(=O)[C@H](CCC(N)=O)NC(=O)[C@H](CS)NC(=O)CNC(=O)CNC(=O)c1ccc(NC(=O)CN2CCN(CC(=O)O)CCN(CC(=O)O)CCN(CC(=O)O)CC2)cc1)C(C)C)C(=O)N[C@@H](CCSC)C(N)=O [^68Ga-DOTA-Abz-BN Tris-, metal not drawn] ({DOTA-4Abz}-GGCQWAV[Cha]H[Nle]M-NH2)
Bmax (apparent number of binding sites per cell) [1]: 5.90 × 10^5 sites/cell
%ID excreted in Feces (in vivo; 1 h): 0.90 ± 0.10 %ID
%ID excreted in Urine (in vivo; 1 h): 43.0 ± 8.70 %ID
Uptake in Blood (in vivo; 1 h): 0.66 ± 0.13 %ID/g
Uptake in Bone (in vivo; 1 h): 0.22 ± 0.05 %ID/g
Uptake in Intestines (measured without their contents) (in vivo; 1 h): 0.79 ± 0.16 %ID/g
Uptake in Kidneys (in vivo; 1 h): 4.0 ± 0.82 %ID/g
Uptake in Liver (in vivo; 1 h): 1.59 ± 0.23 %ID/g
Uptake in Lungs (in vivo; 1 h): 0.58 ± 0.10 %ID/g
Uptake in Pancreas (in vivo; 1 h): 1.48 ± 0.12 %ID/g
Uptake in Spleen (in vivo; 1 h): 0.11 ± 0.01 %ID/g
Uptake in Stomach (in vivo; 1 h): 1.82 ± 0.36 %ID/g
%ID excreted in Feces (in vivo; 2 h): 0.59 ± 0.08 %ID
%ID excreted in Urine (in vivo; 2 h): 50.0 ± 3.45 %ID
Uptake in Blood (in vivo; 2 h): 0.31 ± 0.05 %ID/g
Uptake in Bone (in vivo; 2 h): 0.12 ± 0.01 %ID/g
Uptake in Intestines (measured without their contents) (in vivo; 2 h): 0.61 ± 0.09 %ID/g
Uptake in Kidneys (in vivo; 2 h): 2.86 ± 0.37 %ID/g
Uptake in Liver (in vivo; 2 h): 0.91 ± 0.15 %ID/g
Uptake in Lungs (in vivo; 2 h): 0.40 ± 0.08 %ID/g
Uptake in Pancreas (in vivo; 2 h): 0.97 ± 0.05 %ID/g
Uptake in Spleen (in vivo; 2 h): 0.10 ± 0.01 %ID/g
Uptake in Stomach (in vivo; 2 h): 0.52 ± 0.12 %ID/g
Radioactivity in Urine + bladder (MDA-MB-231 tumors; 1 h): 58.0 ± 6.25 % injected dose per tissue
Uptake in Blood (MDA-MB-231 tumors; 1 h): 0.93 ± 0.22 % ID/g
Uptake in Intestines (measured without their contents) (MDA-MB-231 tumors; 1 h): 1.01 ± 0.17 % ID/g
Uptake in Kidneys (MDA-MB-231 tumors; 1 h): 6.52 ± 0.60 % ID/g
Uptake in Liver (MDA-MB-231 tumors; 1 h): 2.28 ± 0.31 % ID/g
Uptake in Lungs (MDA-MB-231 tumors; 1 h): 1.82 ± 0.30 % ID/g
Uptake in Muscle (MDA-MB-231 tumors; 1 h): 0.36 ± 0.07 % ID/g
Uptake in Pancreas (MDA-MB-231 tumors; 1 h): 1.81 ± 0.22 % ID/g
Uptake in Spleen (MDA-MB-231 tumors; 1 h): 0.18 ± 0.03 % ID/g
Uptake in Stomach (MDA-MB-231 tumors; 1 h): 1.0 ± 0.20 % ID/g
Radioactivity in Urine + bladder (MDA-MB-231 tumors; 2 h): 65.0 ± 9.13 % injected dose per tissue
Uptake in Blood (MDA-MB-231 tumors; 2 h): 0.64 ± 0.16 % ID/g
Uptake in Intestines (measured without their contents) (MDA-MB-231 tumors; 2 h): 0.76 ± 0.12 % ID/g
Uptake in Kidneys (MDA-MB-231 tumors; 2 h): 3.96 ± 0.48 % ID/g
Uptake in Liver (MDA-MB-231 tumors; 2 h): 1.71 ± 0.20 % ID/g
Uptake in Lungs (MDA-MB-231 tumors; 2 h): 1.26 ± 0.25 % ID/g
Uptake in Muscle (MDA-MB-231 tumors; 2 h): 0.28 ± 0.04 % ID/g
Uptake in Pancreas (MDA-MB-231 tumors; 2 h): 0.93 ± 0.15 % ID/g
Uptake in Spleen (MDA-MB-231 tumors; 2 h): 0.09 ± 0.02 % ID/g
Uptake in Stomach (MDA-MB-231 tumors; 2 h): 0.52 ± 0.13 % ID/g
Uptake in Tumor (MDA-MB-231 tumors; 1 h p.i.): 2.15 ± 0.33 % ID/g
Uptake in Tumor (MDA-MB-231 tumors; 2 h p.i.): 1.37 ± 0.25 % ID/g

CCCC[C@H](NC(=O)[C@H](Cc1c[nH]cn1)NC(=O)[C@H](CC1CCCCC1)NC(=O)[C@@H](NC(=O)[C@H](C)NC(=O)[C@H](Cc1c[nH]c2ccccc12)NC(=O)[C@H](CCC(N)=O)NC(=O)[C@H](CS)NC(=O)CNC(=O)CNC(=O)CCCCCNC(=O)CN1CCN(CC(=O)O)CCN(CC(=O)O)CCN(CC(=O)O)CC1)C(C)C)C(=O)N[C@@H](CCSC)C(N)=O [^68Ga-DOTA-Ahx-BN Cyclen, metal not drawn] ({DOTA-Ahx}-GGCQWAV[Cha]H[Nle]M-NH2)
Bmax (apparent number of binding sites per cell) [1]: 5.29 × 10^5 sites/cell
Kd ([1]; ~300,000 cells, 0.1-25 nM radiopeptide, 60 min, room temperature, mean ± SD): 9.89 ± 1.56 nM
Uptake in Lungs (in vivo; 2 h): 0.10 ± 0.02 %ID/g
dose excreted at 1 h (in vivo; %ID excreted in Feces): 0.85 ± 0.17%
dose excreted at 2 h (in vivo; %ID excreted in Feces): 0.76 ± 0.11%
dose excreted at 1 h (in vivo; %ID excreted in Urine): 80 ± 9.8%
dose excreted at 2 h (in vivo; %ID excreted in Urine): 64 ± 6.35%
tissue uptake at 1 h (in vivo; Uptake in Blood): 0.18 ± 0.04 %ID/g
tissue uptake at 2 h (in vivo; Uptake in Blood): 0.11 ± 0.03 %ID/g
tissue uptake at 1 h (in vivo; Uptake in Bone): 0.15 ± 0.03 %ID/g
tissue uptake at 2 h (in vivo; Uptake in Bone): 0.06 %ID/g
tissue uptake at 1 h (in vivo; [2]): 0.64 ± 0.12 %ID/g
tissue uptake at 2 h (in vivo; [2]): 0.41 ± 0.05 %ID/g
tissue uptake at 1 h (in vivo; Uptake in Kidneys): 1.98 ± 0.34 %ID/g
tissue uptake at 2 h (in vivo; Uptake in Kidneys): 1.41 ± 0.27 %ID/g
tissue uptake at 1 h (in vivo; Uptake in Liver): 0.61 ± 0.1 %ID/g
tissue uptake at 2 h (in vivo; Uptake in Liver): 0.46 ± 0.07 %ID/g
tissue uptake at 1 h (in vivo; Uptake in Lungs): 0.19 ± 0.04 %ID/g
tissue uptake at 1 h (in vivo; Uptake in Pancreas): 1.49 ± 0.12 %ID/g
tissue uptake at 2 h (in vivo; Uptake in Pancreas): 1.02 ± 0.15 %ID/g
tissue uptake at 1 h (in vivo; Uptake in Spleen): 0.13 ± 0.01 %ID/g
tissue uptake at 2 h (in vivo; Uptake in Spleen): 0.09 ± 0.01 %ID/g
tissue uptake at 1 h (in vivo; Uptake in Stomach): 1.48 ± 0.22 %ID/g
tissue uptake at 2 h (in vivo; Uptake in Stomach): 0.43 ± 0.11 %ID/g
washout from the tumors over 2 h (MDA-MB-231 tumors; MDA-MB-231 tumors, nude mice, 1 h vs 2 h p.i.): 28%
Uptake in Liver (MDA-MB-231 tumors; 1 h): 1.02 ± 0.16 % ID/g
Uptake in Lungs (MDA-MB-231 tumors; 1 h): 0.55 ± 0.10 % ID/g
Uptake in Liver (MDA-MB-231 tumors; 2 h): 0.91 ± 0.10 % ID/g
Uptake in Tumor (MDA-MB-231 tumors; 1 h p.i.): 2.32 ± 0.25 % ID/g
Uptake in Tumor (MDA-MB-231 tumors; 2 h p.i.): 1.65 ± 0.19 % ID/g
